From patent US20080138847A1, “Bcl-2 family member and BH-3 only proteins for use in development of peptidomimetics” (priority 2004, published 2008)
Residue numbers refer to the chain shown, from its start. Names and notes keep the numbering of the source. “Also recorded” adds a separate entry of the source. Where no end group is shown, it is not given here.

What was measured:
[1] = molecular target: T1, CED-9 protein (residues 1-251) (Caenorhabditis elegans, UniProt P41958); assay: GST-EGL-1 fragment/mutant interaction with CED-9 (GST-mediated pull-down assay); assay type: binding, C. elegans; conditions: GST-EGL-1 fragments or mutants, in vitro
T1 construct: made in house
T1 sequence (P41958 1-251): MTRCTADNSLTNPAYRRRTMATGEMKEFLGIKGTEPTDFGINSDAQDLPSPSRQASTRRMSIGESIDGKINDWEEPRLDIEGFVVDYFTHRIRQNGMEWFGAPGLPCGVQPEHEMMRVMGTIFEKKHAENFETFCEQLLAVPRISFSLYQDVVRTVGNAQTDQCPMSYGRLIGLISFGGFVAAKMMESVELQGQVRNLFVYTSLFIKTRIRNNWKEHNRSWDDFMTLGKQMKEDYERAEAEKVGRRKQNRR
Procedure: This example describes the characterization of EGL-1/CED-9 interactions. To determine the mechanism of CED-9 recognition by EGL-1, the EGL-1/CED-9 interaction was characterized. Various fragments of the GST-EGL-1 protein were evaluated for their abilities to interact with the CED-9 protein (residues 1-251).
To further characterize EGL-1/CED-9 interactions, a number of missense mutations were introduced into EGL-1 and the ability of the resulting EGL-1 mutants to interact with CED-9 was determined.
This example describes the biochemical and functional analysis of EGL-1/CED-9 interactions. To corroborate the structural analysis, mutations on the interface residues of EGL-1 were examined for their potential to weaken or disrupt its binding to CED-9. Various mutant EGL-1 fragments were purified as fusion proteins with glutathione S-transferase (GST) and their interactions with CED-9 were investigated using a GST-mediated pull-down assay.

CED-4/CED-9 complex = molecular target: T2, CED-4/CED-9 complex (Caenorhabditis elegans, UniProt P41958); assay: CED-4 displacement assay (pre-assembled CED-4/CED-9 complex on glutathione resin challenged with EGL-1 fragments); assay type: biochemical, C. elegans; conditions: in vitro, remaining complex visualized on SDS polyacrylamide gel
T2 sequence (P41958 1-251 limits assumed): T1 sequence (P41958 1-251)
Source text: EGL-1 induces apoptosis by displacing CED-4 from the CED-4/CED-9 complex. To recapitulate this finding in vitro, a CED-4 displacement assay was designed in which pre-assembled CED-4/CED-9 complex was immobilized on glutathione resin and was then challenged with various EGL-1 fragments. After extensive washing, the remaining CED-4/CED-9 complex was eluted from the resin and visualized on SDS polyacrylamide gel. […] In contrast, most missense mutations at the EGL-1/CED-9 interface weakened the ability of EGL-1 to displace CED-4 from the CED-4/CED-9 complex. […] The in vitro studies are in complete agreement with the structural observation.

[2] = system: ced-1 (e1735); egl-1 (n1084 n3082) animals; assay: in vivo cell killing: cell corpses in four-fold transgenic embryos after heat-shock expression of EGL-1 fragments; parameters: species or system C. elegans; conditions: anterior head region of four-fold transgenic embryos; heat-shock promoter expression
Procedure: In this example, the ability of EGL-1 mutants to disrupt the CED-4/CED-9 complex was tested. […] To examine this scenario, constructs were injected into ced-1 (e1735); egl-1 (n1084 n3082) animals that direct expression of various EGL-1 fragments under the control of the C. elegans heat-shock promoters. Cell corpses were scored in the anterior head region of four-fold transgenic embryos after the heat-shock treatment.

CED-9 (residues 68-251) = molecular target: T3, CED-9 (residues 68-251) (Caenorhabditis elegans, UniProt P41958 68-251); assay: isothermal titration calorimetry (ITC)
T3 construct: range 68-251; Form used in isothermal titration calorimetry
T3 sequence (looked up): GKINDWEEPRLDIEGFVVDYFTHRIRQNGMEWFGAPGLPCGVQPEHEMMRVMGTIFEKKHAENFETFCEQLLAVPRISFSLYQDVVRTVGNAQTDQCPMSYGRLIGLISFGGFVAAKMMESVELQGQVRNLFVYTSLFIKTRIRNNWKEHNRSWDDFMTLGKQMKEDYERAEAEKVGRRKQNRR
Source text: The EGL-1/CED-9 complex adopts a compact, globular fold, resembling a single folding unit. CED-9 comprises 7 α helices, with the central hydrophobic helix α5 surrounded by 6 helices and several surface loops. A 27-amino acid fragment of the EGL-1 protein (residues 47-73) forms a single amphipathic α helix, packing against CED-9 helices α2, α3, α4, α5, and α7 over an extended hydrophobic surface cleft. Residues N- or C-terminal to the EGL-1 helix were disordered in the crystals and thus are not involved in binding to CED-9.

CED-4 = molecular target: T4, CED-4 (Caenorhabditis elegans, UniProt P30429); assay: interaction of CED-9 surface mutants with CED-4; assay type: binding, C. elegans; conditions: purified CED-9 mutant proteins
T4 sequence (P30429 1-549): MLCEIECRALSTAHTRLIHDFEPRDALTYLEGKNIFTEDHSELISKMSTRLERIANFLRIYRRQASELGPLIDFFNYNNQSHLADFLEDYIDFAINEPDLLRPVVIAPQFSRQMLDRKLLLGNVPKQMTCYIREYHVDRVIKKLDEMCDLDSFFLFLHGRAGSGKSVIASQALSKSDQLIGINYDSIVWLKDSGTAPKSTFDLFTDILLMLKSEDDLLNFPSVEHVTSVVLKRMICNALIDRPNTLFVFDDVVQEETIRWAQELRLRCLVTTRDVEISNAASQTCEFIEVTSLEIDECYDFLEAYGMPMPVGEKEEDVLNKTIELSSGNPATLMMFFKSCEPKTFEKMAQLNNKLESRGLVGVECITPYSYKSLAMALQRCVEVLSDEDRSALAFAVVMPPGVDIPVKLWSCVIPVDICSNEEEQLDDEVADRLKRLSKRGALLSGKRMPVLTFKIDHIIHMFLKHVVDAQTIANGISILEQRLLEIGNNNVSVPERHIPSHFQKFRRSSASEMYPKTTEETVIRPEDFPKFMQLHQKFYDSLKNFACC
Procedure: This example describes the biochemical analysis of CED-4/CED-9 interactions. To further define the molecular mechanisms by which EGL-1 induces the release of CED-4 from CED-9-mediated sequestration, the identify of surface residues in CED-9 that are important for binding to CED-4 was analyzed. It was hypothesized that for molecular recognition to occur, at least some of the CED-9 residues that are important for binding to CED-4 must be solvent-exposed prior to binding. Therefore, the structure of CED-9 in isolation was examined and a total of 44 amino acids were identified, each with at least 30% of its surface area exposed to solvent. These 44 amino acids were grouped based on primary sequences and 20 CED-9 mutant clones were generated, each containing 1-5 missense mutations that together covering all 44 solvent-exposed residues. All 20 CED-9 proteins were cloned into an expression vector and over-expressed in E. coli and purified to homogeneity.
Next, the abilities of these CED-9 mutants to interact with CED-4 was examined. […] This surface patch may constitute the primary CED-4-binding motif. None of the other 16 mutations, which cover the entirety of the CED-9 surface, affected the CED-4/CED-9.

[3] = listed as EGL-1 double mutant (G55E/F65A)

C-terminal half of EGL-1 (amino acids 45-87): C-terminal half of EGL-1, residues 45-87 (SEISSIGYEIGSKLAAMCDDFDAQMMSYSAHASDRSLFHRLLD)
interaction with (binding to) CED-9 [1]: necessary and sufficient; also recorded: formed a stable complex | ability to displace CED-4 from the CED-4/CED-9 complex (CED-4/CED-9 complex): completely displaced CED-4 | cell killing (cell corpses induced) [2]: necessary and sufficient

C-terminal half of EGL-1 (residues 45-91): C-terminal half of EGL-1, residues 45-91 (EDSSQFADDSGFFDDSEISSIGYEIGSKLAAMCDDFDAQMMSYSAHA; UniProt O61667 45-91, looked up, fragment)
interaction with (binding to) CED-9 [1]: formed a stable complex

EGL-1 C-terminal fragment (residues 46-87): EGL-1 C-terminal fragment residues 46-87 expressed in vivo (DSSQFADDSGFFDDSEISSIGYEIGSKLAAMCDDFDAQMMSY; UniProt O61667 46-87, looked up, fragment)
cell killing (cell corpses induced) [2]: about half the number of cell corpses as the full-length EGL-1

L58A: EGL-1 mutant, Leu58 substituted by Ala (SEISSIGYEIGSKAAAMCDDFDAQMMSYSAHASDRSLFHRLLD; not fully specified)
interaction with (binding to) CED-9 [1]: did not significantly affect its interaction with CED-9; also recorded: retaining their ability to bind to CED-9 | ability to displace CED-4 from the CED-4/CED-9 complex (CED-4/CED-9 complex): significantly reduced ability

N-terminal half (residues 1-45) of EGL-1: N-terminal half of EGL-1, residues 1-45 (MSNVFDVQSSVFYNEKNMFYSSSQDFSSCEDSSQFADDSGFFDDS; not fully specified)
interaction with (binding to) CED-9 [1]: did not show detectable binding | cell killing (cell corpses induced) [2]: did not induce cell death

full-length EGL-1 protein (from UniProt O61667 16-106)
Kd (CED-9 (residues 68-251)): 6.7 nM

mut2: EGL-1 double mutant G55E/F65A (SEISSIGYEIESKLAAMCDDADAQMMSYSAHASDRSLFHRLLD; not fully specified)
interaction with (binding to) CED-9 [1]: failed to bind to CED-9 | interaction with (binding to) CED-9 [1, 3]: failed to bind to CED-9 | interaction with (binding to) CED-9 ([1]; listed as G55E and F65A): completely abolished its interaction with CED-9 | ability to displace CED-4 from the CED-4/CED-9 complex (CED-4/CED-9 complex): completely failed to disrupt the CED-4/CED-9 complex | ability to displace CED-4 from the CED-4/CED-9 complex (CED-4/CED-9 complex; [3]): failed to bind to CED-9 or to displace CED-4 | cell killing (cell corpses induced) [2]: induced no cell killing

mut4: EGL-1 quadruple mutant G55E/L58A/F65A/M69A (SEISSIGYEIESKAAAMCDDADAQAMSYSAHASDRSLFHRLLD; also: fused to a dimerising Fc or GST (left off))
interaction with (binding to) CED-9 [1]: failed to bind to CED-9 | ability to displace CED-4 from the CED-4/CED-9 complex (CED-4/CED-9 complex): completely failed to disrupt the CED-4/CED-9 complex

B1: wild-type EGL-1 protein (residues 1-87): wild-type EGL-1 residues 1-87, lacking the four C-terminal hydrophobic residues (protein)
chain: MSNVFDVQSSVFYNEKNMFYSSSQDFSSCEDSSQFADDSGFFDDSEISSIGYEIGSKLAAMCDDFDAQMMSYSAHASDRSLFHRLLD
ability to displace CED-4 from the CED-4/CED-9 complex (CED-4/CED-9 complex): completely displaced CED-4

B2: EGL-1 fragment (residues 48-72) (peptide, UniProt O61667 63-87, looked up)
peptide: SSIGYEIGSKLAAMCDDFDAQMMSY
notes: range 63-87; Used in ITC
Kd (CED-9 (residues 68-251)): 6.4 nM

B3: G55E: EGL-1 mutant, Gly55 substituted by glutamate (protein, UniProt O61667 1-106, looked up, variant G55E)
Programmed cell death …: MLMLTFASTSSDLLPMSNVFDVQSSVFYNEKNMFYSSSQDFSSCEDSSQFADDSEFFDDSEISSIGYEIGSKLAAMCDDFDAQMMSYSAHASDRSLFHRLLDFFAF
interaction with (binding to) CED-9 [1]: not sufficient to abolish interaction with CED-9; also recorded: retaining their ability to bind to CED-9 | interaction with (binding to) CED-9 ([1]; listed as EGL-1 (G55E)): retained its ability to interact with CED-9 | ability to displace CED-4 from the CED-4/CED-9 complex (CED-4/CED-9 complex): significantly reduced ability | ability to displace CED-4 from the CED-4/CED-9 complex (CED-4/CED-9 complex; listed as EGL-1 (G55E)): decreased ability to disrupt the CED-4/CED-9 complex | cell killing (cell corpses induced) [2]: significantly lower level than that of the wild-type EGL-1 protein

B4: F146N: CED-9 mutant F146N (protein)
chain: T1 sequence (P41958 1-251) with F146N
interaction with CED-4 (CED-4): significantly weakened interactions with CED-4

B5: N158A/A159G/Q160A: CED-9 mutant N158A/A159G/Q160A (protein)
chain: T1 sequence (P41958 1-251) with N158A, A159G, Q160A
interaction with CED-4 (CED-4): significantly weakened interactions with CED-4

B6: R211E/N212G: CED-9 mutant R211E/N212G (protein)
chain: T1 sequence (P41958 1-251) with R211E, N212G
interaction with CED-4 (CED-4): significantly weakened interactions with CED-4
